Reference: PMC4094278, “The Dictyostelium discoideum RACK1 orthologue has roles in growth and development” (Cell Communication and Signaling : CCS, 2014)

Target: the molecule itself
Test: cross-linking; 5-10 μg/100 μl recombinant protein in 1 x PBS, pH 7.4, room temperature, 0.001% glutaraldehyde, 5, 10 and 20 min, stopped with 0.1 M glycine; SDS-PAGE and western blot with anti-DdRACK1 antibodies; dimers and oligomers also seen without glutaraldehyde

B1: recombinant DdRACK1 full length protein cleaved from the GST part (natural protein, D. discoideum, UniProt P46800 1-329, looked up)
chain: MEQQKAPQVTYLEVGSLVGHNGFVTSIAVSPENPDTIISSSRDKTVMVWQLTPTDATSPGKAHRSLKGHSHFVQDVVISHDGQFALSGSWDNTLRLWDITKGVSTRLFKGHTQDVMSVAFSSDNRQIISGSRDATIKVWNTLGECKFTLEGPEAHQDWVSCIRFSPNTPTIVSGSWDNKVKIWDIKSFKCNHTLTDHTGYVNTVTISPDGSLCASGGKDTFACLWELSSGKPLYKLEARNTINALAFSPNKYWLSAATDDKIIIWDLLTKQVLAEIVPEVKEQAFDSKKKKESKPKAPACLSLAWSADGSVLYAGYNDGLIRVYKSSSQ
notes: D. discoideum RACK1 (GpbB), 329 amino acids; Cloned in pGEX-4T-1; cleaved with thrombin; also called GpbB; D. discoideum RACK1; source: E. coli XL1 Blue, purified (GST-Sepharose, thrombin cleavage, DE-52 anion exchange)
B1: binds.
